Experimental data taken from patent US20240282401A1, “METHODS FOR ENZYME ENGINEERING” (The University of Manchester, priority 2021, published 2024).
Positions count from the first letter of the chain named. Numbers in names are those of the source.

What was measured:
[1] = MAO-N variants, (S)-enantiomer of PPY, ref [104]; cited from earlier work
[2] = Thermal stability: residual activity after incubation at 45° C. or 50° C. (GC); assay type: physicochemical; settings: 60 min
Experimental: A subset of mutants was selected and inserted into the HDNO D3 and D6 variants by site directed mutagenesis either alone or in pairs to also check for interactions that would further stabilise the enzyme. Namely, D3-K208E, D6-K208E, D6-R207E, D6-K282E, D6-K428E and D6-K208E/K282E mutant proteins were expressed and purified (as described below) and incubated at elevated temperatures (45° C. or 50° C. for 1 h for D6 variants) using a constant temperature water bath incubator. Aliquots were taken every 15 min and activities were measured by biotransformation and gas chromatography (as described below). The % residual activity corresponds to the ratio between the activity observed after incubation at each specified time over the activity of the enzyme without any thermal treatment.
(§1) A typical 500 μL reaction mixture in a 2 mL tube contained 10 mM amine, 0.05 to 1 mg mL^−1 of purified HDNO variant in pH 8 100 mM NaPi buffer. […] The organic fractions were combined and dried over anhydrous MgSO4 and analysed by GC-FID (conversions) or HPLC (enantiomeric ratios) on a chiral stationary phase (see Chromatography section for details). Turnover frequencies (TOF, min^−1) were calculated as the moles of product formed/moles of enzyme min^−1 based on conversions obtained by GC-FID analysis (see Chromatography method). […]

[3] = Biotransformation of PPY by purified HDNO variants (GC-FID, chiral HPLC); assay type: biochemical; settings: for rate / activity increase towards PPY oxidation versus HDNO D2: biotransformation measurements
Experimental: (§2) Chiral normal phase HPLC was performed on an Agilent HPLC system (G1379A degasser, G1312A binary pump, a G1367A well plate autosampler unit, a G1316A temperature-controlled column compartment and a G1315C diode array detector) (Agilent Technologies Inc., Santa Clara, CA) equipped with a CHIRALCEL OD-H (250 mm length, 4.6 mm diameter, 5 μm particle size) analytical column (Daicel Corp., Osaka, Japan). The typical injection volume was 10 μL and chromatograms were monitored at 265 nm. Gas chromatographic (GC) analysis was performed on an Agilent 6850 GC (Agilent Technologies Inc., Santa Clara, CA) with a flame ionization detector and autosampler equipped with a HP-1 column of length 30 m, 0.32 mm inner diameter and 0.25 μm film thickness (Agilent Technologies Inc., Santa Clara, CA).
A typical 500 μL reaction mixture in a 2 mL tube contained 10 mM amine, 0.05 to 1 mg mL^−1 of purified HDNO variant in pH 8 100 mM NaPi buffer. Reactions were incubated at 30° C. with 250 r.p.m shaking for different reaction times, after which they were quenched by the addition of 50 μL of 10 M NaOH and extracted twice with 500 μL tert-butyl methyl ether (HPLC grade, Merck Life Science UK Limited, Gillingham). The organic fractions were combined and dried over anhydrous MgSO4 and analysed by GC-FID (conversions) or HPLC (enantiomeric ratios) on a chiral stationary phase (see Chromatography section for details). Turnover frequencies (TOF, min^−1) were calculated as the moles of product formed/moles of enzyme min^−1 based on conversions obtained by GC-FID analysis (see Chromatography method). The same response factor was considered for both substrate and product.

[4] = Kinetic parameters by HRP-ABTS assay; assay type: biochemical; settings: oxidation of 2-phenylpyrrolidine, 30° C., pH 8
Experimental: Kinetic parameters of different HDNO variants were determined using the ABTS-HRP assay. Samples of 20 μL of substrate at different concentrations in DMSO (0.05 mM-10 mM, 10% DMSO final concentration) was diluted in 130 μL of reacting solution which contained 0.2 mg ml^−1 HRP (IV, Sigma) and 0.4 mg ml^−1 ABTS in 100 mM pH 8 NaPi buffer. The assay was started by adding 50 μL purified enzyme (typically 0.1-2 mg ml^−1 concentration). Production of the reduced ABTS was measured using a Tecan infinite M200 microplate reader (Tecan Group Limited, Mannedorf, Switzerland) at 420 nm (E=36 mM^−1 cm^−1) and 30° C. for 10 min. Measurements were made in triplicate and a 1:1 ratio for the oxidation of substrate to the production of hydrogen peroxide was assumed. Rate was plotted against substrate concentration and Vmax and KM values extracted using non-linear regression analysis with a fit to the Michaelis-Menten equation using Prism software (GraphPad Software, San Diego, CA). Protein concentrations for kinetic parameters were determined using the Bradford assay following supplier's instructions using bovine serum albumin (BSA) standards for calibration (Merck Life Science UK Limited, Gillingham).

[5] = Biotransformation of methylbenzylamine by purified HDNO variants; assay type: biochemical
Experimental: as §2, §1

B1: N336S: evolved monoamine oxidase (MAO-N) variant N336S (protein, UniProt P46882 1-495, looked up, variant N336S)
Monoamine oxidase N: MTSRDGYQWTPETGLTQGVPSLGVISPPTNIEDTDKDGPWDVIVIGGGYCGLTATRDLTVAGFKTLLLEARDRIGGRSWSSNIDGYPYEMGGTWVHWHQSHVWREITRYKMHNALSPSFNFSRGVNHFQLRTNPTTSTYMTHEAEDELLRSALHKFTNVDGTNGRTVLPFPHDMFYVPEFRKYDEMSYSERIDQIRDELSLNERSSLEAFILLCSGGTLENSSFGEFLHWWAMSGYTYQGCMDCLISYKFKDGQSAFARRFWEEAAGTGRLGYVFGCPVRSVVNERDAARVTARDGREFAAKRLVCTIPLNVLSTIQFSPALSTERISAMQAGHVSMCTKVHAEVDNKDMRSWTGIAYPFNKLCYAIGDGTTPAGNTHLVCFGTDANHIQPDEDVRETLKAVGQLAPGTFGVKRLVFHNWVKDEFAKGAWFFSRPGMVSECLQGLREKHRGVVFANSDWALGWRSFIDGAIEEGTRAARVVLEELGTKREVKARL
reported kcat [1]: 2.50 s⁻¹

B2: N336S/1246M: evolved monoamine oxidase (MAO-N) variant (protein, UniProt P46882 1-495, looked up, variant N336S I246M)
Monoamine oxidase N: B1 Monoamine oxidase N with I246M
reported kcat [1]: 2.13 s⁻¹

B3: D3: HDNO D2 plus N414H (E350L/E352D/N414H), SEQ ID NO: 4 (protein)
chain: MVSSKLATPLSIQGEVIYPDDSGFDAIANIWDGRHLQRPSLIARCLSAGDVAKSVRYACDNGLEISVRSGGHNPNGYATNDGGIVLDLRLMNSIHIDTAGSRARIGGGVISGDLVKEAAKFGLAAVTGMHPKVGFCGLALNGGVGFLTPKYGLASDNILGATLVTATGDVIYCSDDERPELFWAVRGAGPNFGVVTEVEVQLYELPRKMLAGFITWAPSVSELAGLLTSLLDALNEMADHIYPSVFVGVDENRAPSVTVCVGHLGGLDIAERDIARLRGLGRTVSDSIAVRSYDEVVALNAEVGSFEDGMSNLWIDREIAMPNARFAEAIAGNLDKFVSEPASGGSVKLLIDGMPFGNPKRTPARHRDAMGVLALAEWSGAAPGSEKYPELARELDAALLRAGVTTSGFGLLNHNSEVTAEMVAEVYKPEVYSRLAAVKREYDPENRFRHNYNIDPEGS
modifications: HDNO D3
residual activity [2]: 62%
rate / activity increase towards PPY oxidation versus HDNO D2 ([3]; listed as 6-HDNO D3): 1.7 fold
rate / activity increase towards PPY oxidation versus HDNO D2 ([3]; listed as HDNO D3): almost twofold increase
enantioselectivity of PPY oxidation ([3]; chiral HPLC): completely selective towards the oxidation of the (R)-enantiomer
Km [4]: 490 ± 140 µM
kcat [4]: 0.71 ± 0.05 s⁻¹
activity to methylbenzylamine lower than in HDNO D6 [5]: about 20%

B4: D2: 6-hydroxy-D-nicotine oxidase from Arthrobacter nicotinovorans with E350L/E352D, SEQ ID NO: 2 (protein)
chain: B3 chain with H414N
modifications: HDNO D2
Km [4]: 1060 ± 440 µM
kcat [4]: 0.50 ± 0.06 s⁻¹
